In the experiment the target is GRP94 on human CRC cells (HCT116, LoVo, HT29, HCT8) (human, UniProt P14625 22-803). The experiment is described as follows: cell-based or functional assay.
GRP94 on human CRC cells (HCT116, LoVo, HT29, HCT8), sequence (P14625 22-803): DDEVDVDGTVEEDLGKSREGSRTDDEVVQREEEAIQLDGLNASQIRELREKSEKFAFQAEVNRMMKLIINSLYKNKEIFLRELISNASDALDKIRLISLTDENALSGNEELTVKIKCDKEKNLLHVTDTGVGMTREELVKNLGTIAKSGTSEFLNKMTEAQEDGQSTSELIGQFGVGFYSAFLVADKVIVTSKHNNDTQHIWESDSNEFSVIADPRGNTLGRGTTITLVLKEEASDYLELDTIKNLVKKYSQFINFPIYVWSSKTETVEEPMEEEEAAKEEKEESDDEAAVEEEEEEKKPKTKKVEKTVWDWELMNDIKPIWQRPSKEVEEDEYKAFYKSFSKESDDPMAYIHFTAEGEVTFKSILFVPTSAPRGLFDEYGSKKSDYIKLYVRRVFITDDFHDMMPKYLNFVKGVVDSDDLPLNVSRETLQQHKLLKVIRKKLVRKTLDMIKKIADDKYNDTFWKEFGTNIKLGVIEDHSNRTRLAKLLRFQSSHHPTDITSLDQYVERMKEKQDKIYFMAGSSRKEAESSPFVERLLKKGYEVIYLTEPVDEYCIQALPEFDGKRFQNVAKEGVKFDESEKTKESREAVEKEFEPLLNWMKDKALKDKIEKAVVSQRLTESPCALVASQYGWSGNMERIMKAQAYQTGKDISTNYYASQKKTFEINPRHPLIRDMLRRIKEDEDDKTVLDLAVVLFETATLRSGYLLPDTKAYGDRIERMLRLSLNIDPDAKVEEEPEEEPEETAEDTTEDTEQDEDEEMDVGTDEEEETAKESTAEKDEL

B1: K101.1-DM1 (antibody, V domains shown)
VH: EVQLLESGGGLVQPGGSLRLSCAASGFTFSNYSMSWVRQAPGKGLEWVSGIYYGSGNKYYADSVKGRFTISRDNSKNTLYLQMNSLRAEDTAVYYCAKNLASFDYWGQGTLVTVSS
VL: QSVLTQPPSASGTPGQRVTISCSGSSSNIGSNSVNWYQQLPGTAPKLLIYSNSHRPSGVPDRFSGSKSGTSASLAISGLRSEDEADYYCGTWDSSLSGYVFGGGTKLTVL
modifications: SMCC-DM1 conjugated to lysine residues of the antibody (positions not stated)
Take B1: the “IC50 of cell viability (CCK-8), HCT8 cells” value was found to be 0.0788 µM; the “IC50 of cell viability (CCK-8), HCT116 cells” value stood at 0.0349 µM; the “IC50 of cell viability (CCK-8), HT29 cells” value turned out to be 0.0777 µM; the “IC50 of cell viability (CCK-8), LoVo cells” value was determined as 0.0525 µM.

B2: K101.3-DM1 (antibody, V domains shown)
VH: EVQLLESGGGLVQPGGSLRLSCAASGFTFSGYAMSWVRQAPGKGLEWVSAISHGGSSKYYADSVKGRFTISRDNSKNTLYLQMNSLRAEDTAVYYCAKDLLSPLQSIGSYDDAMDVWGQGTLVTVSS
VL: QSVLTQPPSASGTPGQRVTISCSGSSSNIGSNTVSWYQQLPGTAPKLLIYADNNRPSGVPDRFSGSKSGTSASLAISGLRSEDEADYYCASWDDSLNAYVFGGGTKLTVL
modifications: SMCC-DM1 conjugated to lysine residues of the antibody (positions not stated)
Consider B2, for which the “IC50 of cell viability (CCK-8), HCT8 cells” value stood at 0.0449 µM; the “IC50 of cell viability (CCK-8), HCT116 cells” value turned out to be 0.0578 µM; the “IC50 of cell viability (CCK-8), HT29 cells” value is 0.0483 µM; the “IC50 of cell viability (CCK-8), LoVo cells” value stood at 0.0355 µM.

The values above are taken from patent publication US20260097129A1 (KOOKMIN UNIVERSITY INDUSTRY ACADEMY COOPERATION FOUNDATION, published 2026).
